# According to CN116745314A:
# Target: spike glycoprotein of live SARS-CoV-2 (isolate USA-WA1/2020) (SARS-CoV-2) (UniProt P0DTC2)
# Assay: cell-based or functional assay
substance,measurement,value
S2E12-LS (antibody),"EC50 (live SARS-CoV-2-luc neutralisation, MOI 0.1, 6 h)",5 ng/mL
same,"EC90 (live SARS-CoV-2-luc neutralisation, MOI 0.1, 6 h)",30 ng/mL
same,"IC50 (live SARS-CoV-2-luc neutralisation, MOI 0.1, 6 h)",4.84 ng/mL
